The values that follow come from patent US20250326867A1, “De novo designed chlorophyll special pair proteins” (University of Washington, priority 2024, published 2025).

Sequences and labels used below:
B1: D2L (designed binder)
chain: SGSGSREKELKQLISNLQILLLILLSEDPNNELVRKLQEKIKEAEEQGDPRRLKLIWWILNLIQMLQQLEQEDPNNELVKRLKELIKRALEEGDPRLLLLIHIILALIWLLQALEKEDPNNELVKRLKKLIEEALKEGDPRKLIQIALLLTWIATIQRLKKQDPNNELIKRAEETLEQSLKT
notes: Designed homodimer subunit, after TEV cleavage
B2: D2S (designed binder)
chain: SGSGSEEEELERLKEQLKIWQKLIKLILEQDPNDEQIRRILEQAEEIIQKLQEDPNNEELQRLIQLLFNLVAIIFSIKQILELDPNDEQIRRILEQAKEIIQKLQEDPNNEELFLLAHMLFALVAIILLIKLMLEQDPNDELIREILEQAKEIIQKLQEDPNNAELAMLIALLLSLVLWIWFMKFQLEQDPNDEEIRRQLEQLEERIRRTLE
notes: as for B1
B3: D2R (designed binder)
chain: SGSGSEEEELKRLQTLIKYLQLLIQNAKWQNPDDELLRQVEELIEEMKKRLEENPNSQEDQALLKLLITIIALIIMILWLKSENPDDELLRQVEELIKEMIERLKENPNSQEDQALLQLLHAILGLILLIQQLKKQNPDDELLQQVEELIEEMIKRLKENPNSEKDQILLSFLALSLLSIFLIQTQKKQNPDDERLKQWEKQIKESIESSKE
notes: as for B1
B4: D2O (designed binder)
chain: SGSGSEEEEIRLAQLAIQIIQYQVEKNGDEQLLRLIQEITEQLQKEGDERLIRILLAMFAIILILEHVEKNGDEELLRLIQEITEKLARQGDERLIRILIAMAGIIWILELVKKNGDEQLLRLIREITRKLAEEGDERLIQILLAMHAIIISSEQLEKNGDEELLQKLRELLEKIAKE
notes: as for B1
B5: JF (designed binder)
chain: SGSGSSDELQARFLILSAKLQAEMAQIAAERTGDPRVRELARELKRLAQEAAEEVKRDPSSSEVNSNLALISMAIALAVLALLLARKAGDEEARDIAREAVEVAVRAAELILEGRDDQRAWTLWLIAHALLMAVYAARLGNSEVAELAVKVLRLAKELEKLLPSEEALFVVSMIGLAALQAAMAAAGGQEDYARDALRRLEEAIREAEENRSKESLEKVEEEGIEAMEQALRAIAGG
notes: as for B1
B6: D2Q (designed binder)
chain: SGSGSEEEEKRLIEKMSKFIWWFAQQLGDERILRAVEKLQQEIKENSPTPETYMTLGNLLLSLLIWWAAQQLGDEKILEAVERLLQQIEENSPTPETHLTLAILMSALAIWQQAQKLGDEDILEAVERLLEEIQRNSPTPSTMTKLLWLALLLNNWEELQKQGDEEQLRSSEKAMKELKE
notes: as for B1
B7: SP2 (designed binder)
chain: SGSGSSDEEFKFLATEAKMLITAAERLAGTDPELQEMVALIKKELEQAERTFRNGDKSEAQRQLEFVLTAARAVMNVAAAANAAGTDPELIEMVLRILKQLKEAIRTFQNGDQEEAETQLRFVLRAAIAVAVVAAALVLAGTDPELQEMVKQILEELKQAIETFARGDKEKALTQLLFVAWAAHAVAMIAAAANLAGTDPRLQQQVKEILEKLKEAIETFQKGDEEQAFRQLAEVLAEAALVALRAALTN
notes: De novo designed subunit of a C2 homodimer
B8: tj79C2-H62A (designed binder)
chain: SGSGSRYDELNARLLILLAELAAERADIAAERTGDPRVRELARELKRLAQEAAEEVKRDPSSWSVLHALWLIVVAIEAAVRALEAAERTGDPEVRELARELVRLAVEAAEEVQRNPSSWDVFMALLLIVFAIEAAVRALEAAERTGDPEVRELARELVRLAVEAAEEVQRNPSSKEVDMALLLILIAILEAVLSLLRAERSGDPEKREKARERVREAVERAEEVQRDPSGW
notes: as for B1
B9: tj79C2-H65D (designed binder)
chain: SGSGSREDELQARLLILLIELAAERADIAAERTGDPRVRELARELKRLAQEAAEEVKRDPSSSDVWLALHLIVIAILIAVEALEAAERTGDPEVRELARELVRLAVEAAEEVQRNPSSSDVLKALMLILIAILLLLEALEAAERTGDPEVRELARELVRLAVEAAEEVQRNPSSKEVQMALLLILIAILEAILSLLRAERSGDPEKREKARERVREAVERAEEVQRDPSGW
notes: as for B1
B10: tj79C2-H65E (designed binder)
chain: B9 chain with Q11W, W66L, K123I
notes: as for B1
B11: SP1 (designed binder)
chain: GGDSRELIARYQILLAELAAIRADIAAERTGDPYVRKLARELKRLAQEAAEEVKRDPSSSDVNMALLLILLMIELAVRALEAAERTGDPEVRELAAELVWLAVEAAEEVQRNPSSSDVWLALHLIMLAIWAAVAALEAAERTGDPEVRELARELVRLAVEAAEEVQRNPSSKEVYMALLLILIAILEAVLSLLRAERSGDPEKREKARERVREAVERAEEVQR
notes: as for B7
B12: D2N (designed binder)
chain: SGSGSEEEEIRLAQLTIQIIQYQVEKNGDEQLLRLIQEITEQLQKEGDERLIRILNAMFTIIWILEAVEKNGDEELLRLIQEITEKLARQGDERLIKILSAMAGIIWILEIVKKNGDEQLLRLIREITRKLAEEGDERLIQILANMHSIIISSEELEKNGDEELLQKLRELLEKIAKELEHHHHHH
notes: as for B1
B13: tj79C2-H65C (designed binder)
chain: SGSGSREDELIARYLILLAELAAERADIAAERTGDPRVRELARELKRLAQEAAEEVKRDPSSSDVFMALHLIVLAIQIAVKALEAAERTGDPEVRELARELVRLAVEAAEEVQRNPSSSDVFLALLLIVTAIMLAVEALEAAERTGDPEVRELARELVRLAVEAAEEVQRNPSSKEVLMALLLILIAILEAVLSLLRAERSGDPEKREKARERVREAVERAEEVQRDPSGW
notes: as for B1
B14: D2T (designed binder)
chain: SGSGSEEEELERLKEQLKIWQKLIKLILEQDPNDEQIRRILEQAEEIIQKLQEDPNNEELQRLIQLLFQLVLGIFIIKQILELDPNDEQIRRILEQAKEIIQKLQEDPNNEELYRLQGLLGMLVGIILLIKLMLEQDPNDELIREILEQAKEIIQKLQEDPNNQELLSLIHLLLALVLWIWFMKFQLEQDPNDEEIRRQLEQLEERIRRTLE
notes: as for B1
B15: D2M (designed binder)
chain: SGSGSEEEQIRLAQLAIQIIQYQVEKNGDEQLLRLIQEITEQLQKEGDERLIAILSTMFGIIWILEQVEKNGDEELLRLIQEITEKLARQGDERLIQIGAAMLAIIIILEQVKKNGDEQLLRLIREITRKLAEEGDQRLIWILHAMMAIIMSSEELEKNGDEELLQKLRELLEKIAKE
notes: as for B1
B16: JG (designed binder)
chain: SGSGSSDELEARLLIISANLQAEMAQIAAERTGDPRVRELARELKRLAQEAAEEVKRDPSSSEVNQNLTLISMAIALAVLALLLARKAGDEEARDIAREAVEVAVRAAELILEGRDEQRAWTLFLIAHALLLAVLAARLGNSEVAELAVKVLRLAKELEKLLPSEIALFVVSMIGMAALQAAMAASGGQEDYARDALRRLEEAIREAEENRSKESLEKVMEEAIRAYEQALRALAGG
notes: as for B1
B17: D2K (designed binder)
chain: SGSGSREKELKQLISNLQILLLILLSQDPNNELVRKLQEKIKEAEEQGDPRRLKLIWWILALINILQALEQEDPNNELVKRLKELIKRALEEGDPRLLQLILLILHLIWLLQALEKEDPNNELVKRLKKLIEEALKEGDPRKLWQILALLLWIAQIQKLKKQDPNNELIKRAEETLEQSLKT
notes: as for B1
B18: tj79C2-H69A (designed binder)
chain: SGSGSREDELQARLQLLAAELAAEEADIAAERTGDPRVRELARELKRLAQEAAEEVKRDPSSSDVNAALVLITHAIMLAVEALKAAERTGDPEVRELARELVRLAVEAAEEVQRNPSSSDVNKALFLIMMAIITAVTALEAAERTGDPEVRELARELVRLAVEAAEEVQRNPSSKEVDMALLLILIAILEAVLSLLRAERSGDPEKREKARERVREAVERAEEVQRDPSGW
notes: as for B1
B19: JH (designed binder)
chain: SGSSEELAREAREAAIRLAQASTKLMEAMIRGDLKELAEALIELARAVQELARVAKEYGNDELAKLAAFLAAHIAMLAIWVLILAIREGDDEVRELAKTAIKLASTAAKIVLDALPTAEEVRIITLLAKLAEEAADKKNEDSALAVLIAAMAVLIALAALEAAQRAGIEEAEKAARLLLKLAGEAARKKNPEEAKAVYNAALLVSIALLLLQKAKRAGSEETRRLAEEMLRQALERARKKN
notes: as for B1
B20: tj79C2-H65A (designed binder)
chain: SGSGSREDELLARYLILLAELAAEEADIAAERTGDPRVRELARELKRLAQEAAEEVKRDPSSSDVNHALHLIVLAILIAVEALEAAERTGDPEVRELARELVRLAVEAAEEVQRNPSSSDVLKALILILLAIIQAVKALEAAERTGDPEVRELARELVRLAVEAAEEVQRNPSSKEVTMALLLILIAILEAVLSLLRAERSGDPEKREKARERVREAVERAEEVQRDPSGW
notes: as for B1
B21: tj79C2-H65B (designed binder)
chain: B20 chain with L11F, E25R, H67L, I78A, I126M, L129V, I133L, K137Q, T178Y
notes: as for B1
B22: D2P (designed binder)
chain: SGSGSEEEEKRLIEKMSKFIWWFAQQLGDERILRAVEKLQQEIKENSPTPETFMTLINLLLSLLIWWAAQKLGDEKILEAVERLLQQIEENSPTPETHMTLAALAQSLAIWQQAQKLGDEDILEAVERLLEEIQRNSPTPSTLIKLTWLLLLLNNWQELQKQGDEEQLRSSEKAMKELKE
notes: as for B1

Numbering of substitutions follows the chain as printed.

This data set deals with the molecule itself. The data set can be described thus: size-exclusion chromatography, self-association (homodimer). The procedure:
FIG. 7. Size exclusion chromatography (SEC) traces of purified SP apo-proteins. Proteins were injected as 0.5 mL aliquots onto a Superdex™ 200 Increase 10/300 GL column (Cytiva Life Sciences). The narrow, isolated peaks indicate that the samples contain monodisperse protein. Running buffer was 150 mM NaCl, 10 mM Tris at pH 8. Proteins were purified by Ni-NTA and one round of SEC prior to collecting the data shown.
Proteins were purified by Ni-NTA and size-exclusion chromatography (SEC) (FIG. 7). […] A slightly lower predicted radius of gyration (Rg) value compared to experimental SAXS data is likely due to a dense hydration shell around the highly charged SP proteins (Svergun et al. 1998; Kim et al. 2016). The far ultraviolet (UV) circular dichroism (CD) spectra of three SP proteins that expressed in high yield (≥140 mg/L) show the proteins are highly α-helical with and without the synthetic Chl a derivative, Zn pheophorbide a methyl ester (ZnPPaM). Thermal denaturation curves monitored by the CD signal at 222 nm indicate that all three proteins are highly thermostable in the apo- and holo-states (FIG. 2).
In general terms: Size exclusion chromatography separates by hydrodynamic size, large species first.
Turning to B1, the binding result is “binds”.
With B2, the binding result is “binds”.
On to B3, for which the binding result was “binds”.
The entry for B4 is “binds”; for B5 it is “binds”; for B6 it is “binds”.
For B7, the binding result is recorded as “binds”.
Consider B8, for which the binding result is on record as “binds”.
With B9, the binding result is reported as “binds”.
The entry for B10 is “binds”.
The entry for B11 is “binds”; for B12 it is “binds”.
For the protein B13, the binding result was “binds”.
Regarding B14, the binding result is recorded as “binds”.
The value for B15 was “binds”.
Turning to B16, the binding result is listed as “binds”.
With B17, the binding result is given as “binds”.
Regarding B18, the binding result was “binds”.
The entry for B19 is “binds”; for B20 it is “binds”.
The value for B21 was “binds”; that for B22 was “binds”.
